From the supplement of paper PMC7877785
± gives the uncertainty stated by the source.

Experiment: self-splicing fitness, log relative to wild type (ln ratio); higher = more splicing; Tetrahymena group I intron in knt gene, E. coli kanamycin selection, DiMSum; sequences stand for … in CUCUCU…GGAGGGAAAAGUUAUCAGGCAUGCACCUGGUAGCUAGUCUUUAAACCAAUAGAUUGCAUCGGUUUAAAAGGCAAGACCGUCAAAUUGCGGGAAAGGGGUCAACAGCCGUUCAGUACCAAGUCUCAGGGGAAACUUUGAGAUGGCCUUGCAAAGGGUAUGGUAAUAAGCUGACGGACAUGGUCCUAACCACGCAGCCAAGUCCUAAGUCAACAGAUCUUCUGUUGAUAUGGAUGCAGUUCACAGACUAAAUGUCGGUCGGGGAAGAUGUAUUCUUCUCAUAAGAUAUAGUCGGACCUCUCCUUAAUGGGAGCUAGCGGAUGAAGUGAUGCAACACUGGAGCCGCUGGGAACUAAUUUGUAUGCGAAAGUAUAUUGAUUAGUUUUGGAGUACUCGUGGUCG
In short: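 Colonies from six replicate transformations of E. coli BL21(DE3) were pooled and amplicon-sequenced on an Illumina HiSeq 2500. The library placed an intron with all eight P1ex-region nucleotides randomised inside the knt kanamycin-resistance gene on pET-22b(+), and cells grew overnight at 37°C or 30°C on LB agar with or without 25 μg/mL kanamycin (plus 100 μg/mL carbenicillin, 50 μM IPTG, 0.2% rhamnose). Fitness is the DiMSum error-weighted combination of wild-type-normalised replicate fold changes, kanamycin versus none.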

Sequence	self-splicing fitness (ln) (30 °C)	self-splicing fitness (ln) (37 °C)
GCAUAGCAAUAUUACGCUCU	-1.81 ± 0.12	-0.894 ± 0.12
AGUUAGCAAUAUUACGUCCA	-0.989 ± 0.16	-0.0648 ± 0.18
AGGGAGCAAUAUUACGGAAG	-3.61 ± 0.4	-1.02 ± 0.33
AUGAAGCAAUAUUACGAGGG	-2.64 ± 0.21	-2.83 ± 0.28
ACUAAGCAAUAUUACGUCCU	-0.876 ± 0.095	0.0118 ± 0.14
AAACAGCAAUAUUACGCCUG	-1.99 ± 0.096	-0.538 ± 0.1
UGCUAGCAAUAUUACGCGUC	-3.06 ± 0.27	-2.23 ± 0.27
CCGCAGCAAUAUUACGCAGC	-3.86 ± 0.28	-1.62 ± 0.19
GUGUAGCAAUAUUACGUCUG	-1.08 ± 0.17	-1.74 ± 0.27
AUGAAGCAAUAUUACGAUUU	0.114 ± 0.062	0.345 ± 0.071
UUCUAGCAAUAUUACGGUCC		-2.46 ± 0.39
AGUUAGCAAUAUUACGACUC	-2.36 ± 0.32	-1.83 ± 0.38
AAAUAGCAAUAUUACGGUUA	-0.483 ± 0.077	-0.546 ± 0.08
AGAUAGCAAUAUUACGCUAG	-3.21 ± 0.4	-2.24 ± 0.42
UGGGAGCAAUAUUACGCCUU	-2.66 ± 0.26	-1.66 ± 0.31
CUCUAGCAAUAUUACGACGC		-1.31 ± 0.35
GAGGAGCAAUAUUACGUUAA	-2.94 ± 0.36	-1.65 ± 0.21
UGCGAGCAAUAUUACGCGCC	-2.45 ± 0.26	-1.29 ± 0.27
CUACAGCAAUAUUACGGCAA	-3.24 ± 0.24	-2.79 ± 0.23
AGUCAGCAAUAUUACGGUCA	-0.726 ± 0.11	-0.323 ± 0.1
CCACAGCAAUAUUACGCCUG	-1.51 ± 0.092	-0.296 ± 0.1
CGAGAGCAAUAUUACGAUAC	-3.49 ± 0.42	-1.05 ± 0.26
CAGCAGCAAUAUUACGAGCU	-3.07 ± 0.21	-1.76 ± 0.2
GUGCAGCAAUAUUACGCAAU	-1.75 ± 0.085	-1.37 ± 0.12

Sequence	self-splicing fitness (ln) (30 °C)	self-splicing fitness (ln) (37 °C)
CCUAAGCAAUAUUACGAGGA	-1.99 ± 0.15	-1.85 ± 0.13
GCUUAGCAAUAUUACGGUGC	-1.98 ± 0.12	-0.681 ± 0.15
CGAAAGCAAUAUUACGAUUU	-2.12 ± 0.09	-0.815 ± 0.099
AUAGAGCAAUAUUACGUCGU	-0.0699 ± 0.096	-0.158 ± 0.1
UCAUAGCAAUAUUACGGUCA	-1.1 ± 0.16	-0.484 ± 0.16
GCGUAGCAAUAUUACGCAGG	-3.66 ± 0.47	-3.54 ± 0.33
UACGAGCAAUAUUACGGGGG	-4.08 ± 0.29	-3.14 ± 0.34
CAUUAGCAAUAUUACGAGCA	-3.42 ± 0.23	-2.28 ± 0.14
CCUGAGCAAUAUUACGUUAG	-3.86 ± 0.17	-2.29 ± 0.12
CUUCAGCAAUAUUACGCCCG	-0.156 ± 0.12	-0.17 ± 0.15
UAUCAGCAAUAUUACGGAGA	-0.973 ± 0.085	-0.0429 ± 0.1
UGGAAGCAAUAUUACGCUCA	-0.562 ± 0.11	-0.00417 ± 0.13
GCUGAGCAAUAUUACGAUGG	-2.25 ± 0.17	-0.805 ± 0.12
UCUGAGCAAUAUUACGCUAC	-3.66 ± 0.3	-3.09 ± 0.47
UGCUAGCAAUAUUACGAAAG	-2.06 ± 0.21	-0.114 ± 0.19
UAUCAGCAAUAUUACGCUUA	-0.532 ± 0.13	0.504 ± 0.13
UGCAAGCAAUAUUACGGGGU	-3.13 ± 0.15	-2.75 ± 0.14
UAGAAGCAAUAUUACGCGCA	-0.327 ± 0.15	0.03 ± 0.18
CGUUAGCAAUAUUACGGGUU	-3.4 ± 0.24	-2.42 ± 0.25
CCCUAGCAAUAUUACGAGCC	-3.5 ± 0.29	
CUAUAGCAAUAUUACGAUGA	-1.92 ± 0.16	-1.3 ± 0.17
UGCCAGCAAUAUUACGCCUU	-1.93 ± 0.13	-2.29 ± 0.18
AUAGAGCAAUAUUACGCUUA	-0.78 ± 0.084	0.522 ± 0.16
UUUUAGCAAUAUUACGACCU		-1.36 ± 0.44
